The values below come from publication PMC5766609 (Scientific Reports, 2018).

Like-named read-outs stand apart in the source and are kept apart here. Starred links: 1 amine or outer side, 2 acyl side, 3 side chain; linkers in the order of their positions; H or OH if unused. Non-standard residues stand in square brackets, D forms with d. Residues, ends and D or L forms follow the SMILES beside them. Groups on a side chain read outwards from the residue. No end group written: not given here. *: point of attachment. γGlu = O=C(O)[C@H](CCC(=O)[*:2])N[*:1]; Palmitoyl = CCCCCCCCCCCCCCCC(=O)*

For assay [1], the target named is T1, human glucagon receptor (GCGR) (Homo sapiens, UniProt P47871).
T1 construct: expressed in transfected cells; host or cells: CHO-JumpIn cells, stably transfected
T1 sequence (P47871 26-477): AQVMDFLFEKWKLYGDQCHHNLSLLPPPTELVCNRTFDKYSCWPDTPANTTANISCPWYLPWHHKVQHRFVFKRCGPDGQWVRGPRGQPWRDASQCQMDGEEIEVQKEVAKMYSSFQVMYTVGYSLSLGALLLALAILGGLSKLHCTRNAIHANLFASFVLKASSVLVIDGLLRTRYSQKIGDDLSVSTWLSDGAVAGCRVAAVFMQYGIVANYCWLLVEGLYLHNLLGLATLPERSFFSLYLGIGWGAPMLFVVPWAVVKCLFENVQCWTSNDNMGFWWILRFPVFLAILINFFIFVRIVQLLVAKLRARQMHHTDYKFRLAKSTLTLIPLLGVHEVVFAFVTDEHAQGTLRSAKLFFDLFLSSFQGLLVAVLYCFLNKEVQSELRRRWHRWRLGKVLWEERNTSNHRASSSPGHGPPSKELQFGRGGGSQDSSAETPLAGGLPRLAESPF
As to the kind of experiment: cAMP assay on CHO-JumpIn cells stably transfected with human glucagon receptor (HitHunter cAMP).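 Also: peptides tested as 4-fold serial dilutions starting from a 2 µM solution, cells exposed 1 hr at RT in darkness, cAMP quantified against a cAMP standard curve.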 It counts as cell-based. Particulars: cAMP accumulation, CHO-JumpIn cells with human GCGR, value ± spread. On the technique in general: Changes in cAMP serve as a functional read-out for many G protein-coupled receptors.
Experimental: Briefly, a 2 μM solution of peptide was prepared, and 4-fold serial dilutions were made. 150 nL of the above titration was then dispensed into an Optiplate384 using an Echo555. […] The HitHunter® cAMP Assay kit calibration curve was prepared following the manufacturer’s protocol (DiscoveRx-90-0075L). 30,000 cells/well were added to the peptides, spun briefly at 500 rpm for 15 s and incubated at RT in the dark for 1 hr. The assay was developed as per the manufacturer’s instructions. cAMP accumulation due to GLP1R agonism or GCGR agonism was measured using an EnVision platereader (PerkinElmer), and calibrated using the cAMP standard curve. Data were analyzed using Assay Data Analyzer (ADA).

The target in assay [2] is T2, human GLP-1 receptor (GLP1R) (Homo sapiens, UniProt P43220).
T2 construct: expressed in transfected cells; host or cells: CHO-JumpIn cells, stably transfected
T2 sequence (P43220 24-463): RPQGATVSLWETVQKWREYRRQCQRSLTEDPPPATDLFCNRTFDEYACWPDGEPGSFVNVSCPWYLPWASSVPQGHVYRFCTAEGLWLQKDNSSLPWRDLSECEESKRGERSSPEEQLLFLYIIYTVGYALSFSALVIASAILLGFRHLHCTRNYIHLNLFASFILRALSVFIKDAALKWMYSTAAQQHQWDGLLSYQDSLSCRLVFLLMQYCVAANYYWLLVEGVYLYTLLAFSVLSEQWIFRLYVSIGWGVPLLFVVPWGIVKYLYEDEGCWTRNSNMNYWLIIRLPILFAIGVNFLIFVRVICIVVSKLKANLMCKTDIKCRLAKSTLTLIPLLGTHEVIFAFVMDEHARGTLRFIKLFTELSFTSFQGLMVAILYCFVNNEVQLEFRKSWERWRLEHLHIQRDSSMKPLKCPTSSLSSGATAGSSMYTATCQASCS
As to the kind of experiment: cAMP assay on CHO-JumpIn cells stably transfected with human GLP-1 receptor (HitHunter cAMP).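 Also: peptides tested as 4-fold serial dilution series, cells exposed 1 hr at RT in the dark, cAMP quantified against a cAMP standard calibration curve.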 It counts as cell-based. Particulars: value ± spread.

The target in assay [3] is glucagon receptor (human) (UniProt P47871).
Chain of glucagon receptor (human) (P47871 26-477): as the sequence (P47871 26-477) above
Assay [4] deals with human GLP-1 receptor (human) (UniProt P43220).
Chain of human GLP-1 receptor (human) (P43220 24-463): as the sequence (P43220 24-463) above
Setting [5] is: Table 2, buffer PBS, 0.1% BSA, 100 μM RO 20-1724, 20% serum, 1 hr at RT, read-out: EC50 GCGR.
Setting [6] is: Table 2, cAMP accumulation, buffer PBS, 0.1% BSA, 100 μM RO 20-1724, 20% serum, 1 hr at RT, read-out: EC50 GLP1R.

Take `CC[C@H](C)[C@H](NC(=O)[C@H](CC(C)C)NC(=O)[C@H](Cc1c[nH]c2ccccc12)NC(=O)[C@H](CC(=O)O)NC(=O)[C@@H](NC(=O)[C@H](Cc1ccccc1)NC(=O)[C@H](CC(=O)O)NC(=O)[C@H](CCC(N)=O)NC(=O)[C@H](C)NC(=O)[C@H](CCCNC(=N)N)NC(=O)[C@H](CCCNC(=N)N)NC(=O)[C@H](CO)NC(=O)[C@H](CC(=O)O)NC(=O)[C@H](CC(C)C)NC(=O)[C@H](Cc1ccc(O)cc1)NC(=O)[C@H](CCCCN)NC(=O)[C@H](CO)NC(=O)[C@H](Cc1ccc(O)cc1)NC(=O)[C@H](CC(=O)O)NC(=O)[C@H](CO)NC(=O)[C@@H](NC(=O)[C@H](Cc1ccccc1)NC(=O)[C@@H](NC(=O)CNC(=O)[C@H](CCC(N)=O)NC(=O)[C@H](CO)NC(=O)[C@@H](N)Cc1c[nH]cn1)[C@@H](C)O)[C@@H](C)O)C(C)C)C(=O)N[C@@H](CC(N)=O)C(=O)N[C@@H](CO)C(N)=O` [Peptide 28]: the figures for the concentration giving a half-maximal response (EC50) in assay [1] (setting [5]) and in assay [2] (setting [6]) were 0.016 ± 0.001 nM and 0.007 ± 0.001 nM, respectively.
The corresponding values for `CSCC[C@H](NC(=O)[C@H](CC(C)C)NC(=O)[C@H](Cc1c[nH]c2ccccc12)NC(=O)[C@H](CCC(N)=O)NC(=O)[C@@H](NC(=O)[C@H](Cc1ccccc1)NC(=O)[C@H](CC(=O)O)NC(=O)[C@H](CCC(N)=O)NC(=O)[C@H](C)NC(=O)[C@H](CCCNC(=N)N)NC(=O)[C@H](CCCNC(=N)N)NC(=O)[C@H](CO)NC(=O)[C@H](CC(=O)O)NC(=O)[C@H](CC(C)C)NC(=O)[C@H](Cc1ccc(O)cc1)NC(=O)[C@H](CCCCN)NC(=O)[C@H](CO)NC(=O)[C@H](Cc1ccc(O)cc1)NC(=O)[C@H](CC(=O)O)NC(=O)[C@H](CO)NC(=O)[C@@H](NC(=O)[C@H](Cc1ccccc1)NC(=O)[C@@H](NC(=O)CNC(=O)[C@H](Cc1c[nH]cn1)NC(=O)[C@H](CO)NC(=O)[C@@H](N)Cc1c[nH]cn1)[C@@H](C)O)[C@@H](C)O)C(C)C)C(=O)N[C@H](C(=O)N[C@H](C(N)=O)[C@@H](C)O)[C@@H](C)O` [Peptide 29] are 0.032 ± 0.003 nM and 0.08 ± 0.006 nM.
The corresponding values for `CC[C@H](C)[C@H](NC(=O)CNC(=O)[C@H](CCC(N)=O)NC(=O)[C@H](CO)NC(=O)[C@@H](N)Cc1c[nH]cn1)C(=O)N[C@@H](Cc1ccccc1)C(=O)N[C@@H](Cc1ccccc1)C(=O)N[C@@H](CO)C(=O)N[C@@H](CC(=O)O)C(=O)N[C@@H](Cc1ccc(O)cc1)C(=O)N[C@@H](CO)C(=O)N[C@@H](CCCCN)C(=O)N[C@@H](Cc1ccc(O)cc1)C(=O)N[C@@H](CC(C)C)C(=O)N[C@@H](CC(=O)O)C(=O)N[C@@H](CO)C(=O)N[C@@H](CCCNC(=N)N)C(=O)N[C@@H](CCCNC(=N)N)C(=O)N[C@@H](C)C(=O)N[C@@H](CCC(N)=O)C(=O)N[C@@H](CC(=O)O)C(=O)N[C@@H](Cc1ccccc1)C(=O)N[C@H](C(=O)N[C@@H](CCC(N)=O)C(=O)N[C@@H](Cc1c[nH]c2ccccc12)C(=O)N[C@@H](CC(C)C)C(=O)N[C@@H](CCSC)C(=O)N[C@@H](CC(N)=O)C(=O)N[C@H](C(N)=O)[C@@H](C)O)C(C)C` [Peptide 30] (H-HSQGIFFSDYSKYLDSRRAQDFVQWLMNT-NH2) are 0.026 ± 0.004 nM and > 200 nM.
Take `CSCC[C@H](NC(=O)[C@H](CC(=O)O)NC(=O)[C@H](CC(C)C)NC(=O)[C@H](Cc1ccc(O)cc1)NC(=O)[C@H](CCCCN)NC(=O)[C@H](CO)NC(=O)[C@H](Cc1ccc(O)cc1)NC(=O)[C@H](CC(=O)O)NC(=O)[C@H](CO)NC(=O)[C@@H](NC(=O)[C@H](Cc1ccccc1)NC(=O)[C@@H](NC(=O)CNC(=O)[C@H](CCC(N)=O)NC(=O)[C@H](CO)NC(=O)[C@@H](N)Cc1c[nH]cn1)[C@@H](C)O)[C@@H](C)O)C(=O)N[C@@H](CCC(N)=O)C(=O)N[C@@H](CCCNC(=N)N)C(=O)N[C@@H](C)C(=O)N[C@@H](Cc1c[nH]cn1)C(=O)N[C@@H](CC(=O)O)C(=O)N[C@@H](Cc1ccccc1)C(=O)N[C@H](C(=O)N[C@@H](CCC(N)=O)C(=O)N[C@@H](Cc1c[nH]c2ccccc12)C(=O)N[C@@H](CC(C)C)C(=O)N[C@@H](CCSC)C(=O)N[C@@H](CC(N)=O)C(=O)N[C@H](C(N)=O)[C@@H](C)O)C(C)C` [Peptide 32]: the figures for the concentration giving a half-maximal response (EC50) in assay [1] (setting [5]) and in assay [2] (setting [6]) were 0.014 ± 0.001 nM and 0.022 ± 0.001 nM, respectively.
As for `CSCC[C@H](NC(=O)[C@H](CCCNC(=N)N)NC(=O)[C@H](CO)NC(=O)[C@H](CC(=O)O)NC(=O)[C@H](CC(C)C)NC(=O)[C@H](Cc1ccc(O)cc1)NC(=O)[C@H](CCCCN)NC(=O)[C@H](CO)NC(=O)[C@H](Cc1ccc(O)cc1)NC(=O)[C@H](CC(=O)O)NC(=O)[C@H](CO)NC(=O)[C@@H](NC(=O)[C@H](Cc1ccccc1)NC(=O)[C@@H](NC(=O)CNC(=O)[C@H](CCC(N)=O)NC(=O)[C@H](CO)NC(=O)[C@@H](N)Cc1c[nH]cn1)[C@@H](C)O)[C@@H](C)O)C(=O)N[C@@H](C)C(=O)N[C@@H](Cc1ccc(O)cc1)C(=O)N[C@@H](CC(=O)O)C(=O)N[C@@H](Cc1ccccc1)C(=O)N[C@H](C(=O)N[C@@H](CCC(N)=O)C(=O)N[C@@H](Cc1c[nH]c2ccccc12)C(=O)N[C@@H](CC(C)C)C(=O)N[C@@H](CCSC)C(=O)N[C@@H](CC(N)=O)C(=O)N[C@H](C(N)=O)[C@@H](C)O)C(C)C` [Peptide 33] (H-HSQGTFTSDYSKYLDSRMAYDFVQWLMNT-NH2), the EC50 (as a rule, the concentration needed to bring the measured effect to its halfway point) in assay [1] (setting [5]) came out at 0.079 ± 0.033 nM; in assay [2] (setting [6]), 0.059 ± 0.003 nM.
As to `CC(C)C[C@H](NC(=O)[C@H](Cc1ccc(O)cc1)NC(=O)[C@H](CCCCN)NC(=O)[C@H](CO)NC(=O)[C@H](Cc1ccc(O)cc1)NC(=O)[C@H](CC(=O)O)NC(=O)[C@H](CO)NC(=O)[C@H](Cc1ccccc1)NC(=O)[C@H](Cc1ccccc1)NC(=O)[C@@H](NC(=O)CNC(=O)[C@H](CCC(N)=O)NC(=O)[C@H](CO)NC(=O)[C@@H](N)Cc1c[nH]cn1)[C@@H](C)O)C(=O)N[C@@H](CC(=O)O)C(=O)N[C@@H](CO)C(=O)N[C@@H](CCCNC(=N)N)C(=O)N[C@@H](CCCNC(=N)N)C(=O)N[C@@H](C)C(=O)N[C@@H](CCC(N)=O)C(=O)N[C@@H](CC(=O)O)C(=O)N[C@@H](Cc1ccccc1)C(=O)N[C@H](C(=O)N[C@@H](CCC(N)=O)C(=O)N[C@@H](Cc1c[nH]c2ccccc12)C(=O)N[C@@H](CC(C)C)C(=O)N[C@@H](CC(C)C)C(=O)N[C@@H](CCC(=O)O)C(=O)N[C@H](C(N)=O)[C@@H](C)O)C(C)C` [Peptide 34] (H-HSQGTFFSDYSKYLDSRRAQDFVQWLLET-NH2), the figures for the EC50 in assay [1] (setting [5]) and in assay [2] (setting [6]) were 0.027 ± 0.005 nM and 51.9 ± 57.7 nM, respectively.
In the case of `CCCCCCCCCCCCCCCC(=O)N[C@@H](CCC(=O)N[C@@H](CCC(=O)NCCCC[C@H](NC(=O)[C@H](CC(=O)O)NC(=O)[C@H](CO)NC(=O)[C@H](CC(C)C)NC(=O)[C@H](Cc1ccccc1)NC(=O)[C@@H](NC(=O)CNC(=O)[C@H](CCC(N)=O)NC(=O)[C@@H](CO)NC(=O)[C@@H](N)Cc1c[nH]cn1)[C@@H](C)O)C(=O)N[C@@H](CO)C(=O)N[C@@H](CCCCN)C(=O)N[C@@H](CC(C)C)C(=O)N[C@@H](CC(C)C)C(=O)N[C@@H](CC(=O)O)C(=O)N[C@@H](CO)C(=O)N[C@@H](CCCNC(=N)N)C(=O)N[C@@H](CCCNC(=N)N)C(=O)N[C@@H](C)C(=O)N[C@@H](CCC(N)=O)C(=O)N[C@@H](CC(=O)O)C(=O)N[C@@H](Cc1ccccc1)C(=O)N[C@H](C(=O)N[C@@H](CCC(N)=O)C(=O)N[C@@H](Cc1c[nH]c2ccccc12)C(=O)N[C@@H](CC(C)C)C(=O)N[C@@H](CCSC)C(=O)N[C@@H](CCC(N)=O)C(=O)N[C@H](C(N)=O)[C@@H](C)O)C(C)C)C(=O)O)C(=O)O` [Peptide 37] (H-H[dS]QGTFLSDK([γGlu-γGlu-Palmitoyl])SKLLDSRRAQDFVQWLMQT-NH2; N-terminus assumed), the EC50 was found to be 0.037 ± 0.004 nM in assay [1] (Table 3, engineered versus parent peptides, read-out: EC50 hGCGR) and 23.5 ± 7.6 nM in assay [2] (Table 3, engineered versus parent peptides, cAMP accumulation, read-out: EC50 hGLP1).
Regarding INHEQWAFTSDYSKYLDSRRAQDFVQWLMNT-NH2 [Peptide 14], in assay [3], the EC50 GCGR (nM); cAMP assay on CHO-JumpIn cells with human GCGR came to 2.6 nM. The molecule also came in with an EC50 GLP1R (nM); cAMP assay on CHO-JumpIn cells with human GLP1R in assay [4] of 16.7 nM.
The matching figures for HSQGTFTSDYSKYLDELRAYDFVQWLMNT-NH2 [Peptide 10]: 0.057 nM and 0.038 nM.
Regarding ASMFTFFSDYSKYLDSRRAQDFVQWLMLT-NH2 [Peptide 15], the EC50 GLP1R (nM); cAMP assay on CHO-JumpIn cells with human GLP1R in assay [4] was > 200 nM.
In assay [3], HSVGNFWSDYSKYLDSRRAQDFVQWLMLT-NH2 [Peptide 1] registered an EC50 GCGR (nM); cAMP assay on CHO-JumpIn cells with human GCGR of 8.45 nM. In assay [4], this molecule yielded an EC50 GLP1R (nM); cAMP assay on CHO-JumpIn cells with human GLP1R of 16.7 nM.
The matching figures for HSQGTFTSDYSKYLDSRRAQDFVQWLINY-NH2 [Peptide 13]: 0.078 nM and 0.039 nM.
In turn, HSQGTFTSDYSKYLDSRRAHDFVQWLLNT-NH2 [Peptide 11] displayed an EC50 GCGR (nM); cAMP assay on CHO-JumpIn cells with human GCGR in assay [3] of 0.018 nM. This molecule also gave an EC50 GLP1R (nM); cAMP assay on CHO-JumpIn cells with human GLP1R in assay [4] of 0.018 nM.
In the case of HSQGTFTSDYIKLLDSRRAQDFVQWLMNT-NH2 [Peptide 7], the EC50 GCGR (nM); cAMP assay on CHO-JumpIn cells with human GCGR in assay [3] is 0.301 nM. This molecule also had an EC50 GLP1R (nM); cAMP assay on CHO-JumpIn cells with human GLP1R in assay [4] of 78.3 nM.
The matching figures for HSQGTFTSDYSKYLDSLMAQDFVQWLMST-NH2 [Peptide 5]: 0.025 nM and 0.133 nM.
